Results reported in US20260217813A1 (published 2026).

B1: H5L9 (antibody, human IgG1, kappa, V domains shown)
VH: EVQLVQSGAEVKKPGESLKISCQSSGYSFTTYWIGWVRQMPGQGLEWIGIMSPVDSDIRYNPMFRGQVTMSVDKSSSTAYLQWSSLKASDTAMYYCARRRPGQGYFDFWGQGTMVTVSS
VL: DIQMTQSPSSLSASVGDRVTITCKASQNVGSWLAWYQQKPGKAPKSLIYSASSRQSGVPSRFSGSGSGTDFTLTISSLQPEDFATYYCQQYDIYPFTFGQGTKLEIKR
notes: Humanized anti-human IL-12/IL-23 p40 antibody; IgG1 (P01857) / kappa (P01834) constant regions
B2: H5L10 (antibody, human IgG1, kappa, V domains shown)
VH: EVQLVQSGAEVKKPGESLKISCQSSGYSFTTYWIGWVRQMPGQGLEWIGIMSPVDSDIRYNPMFRGQVTMSVDKSSSTAYLQWSSLKASDTAMYYCARRRPGQGYFDFWGQGTMVTVSS
VL: EIVLTQSPATLSASPGERATISCRASQSVGSWLAWYQQKPGQAPRSLIYAASNLQSGIPARFSGSGSGTDFTLTISSLEPEDFAVYYCQQYNIYPYTFGQGTRLEIKR
notes: IgG1/kappa
B3: H5L11 (antibody, human IgG1, kappa, V domains shown)
VH: EVQLVQSGAEVKKPGESLKISCQSSGYSFTTYWIGWVRQMPGQGLEWIGIMSPVDSDIRYNPMFRGQVTMSVDKSSSTAYLQWSSLKASDTAMYYCARRRPGQGYFDFWGQGTMVTVSS
VL: EIVLTQSPATLSASPGERATISCRASQSVSSWLAWYQQKPGQAPRSLIYSASNLQSGIPARFSGSGSGTDFTLTISSLEPEDFAVYYCQQYNIYPYTFGQGTRLEIKR
notes: IgG1/kappa
B4: H5L12 (antibody, human IgG1, kappa, V domains shown)
VH: EVQLVQSGAEVKKPGESLKISCQSSGYSFTTYWIGWVRQMPGQGLEWIGIMSPVDSDIRYNPMFRGQVTMSVDKSSSTAYLQWSSLKASDTAMYYCARRRPGQGYFDFWGQGTMVTVSS
VL: EIVLTQSPATLSASPGERATISCRASQSVSSWLAWYQQKPGQAPRSLIYAASNRQSGIPARFSGSGSGTDFTLTISSLEPEDFAVYYCQQYNIYPYTFGQGTRLEIKR
notes: IgG1/kappa
B5: H5L14 (antibody, human IgG1, kappa, V domains shown)
VH: EVQLVQSGAEVKKPGESLKISCQSSGYSFTTYWIGWVRQMPGQGLEWIGIMSPVDSDIRYNPMFRGQVTMSVDKSSSTAYLQWSSLKASDTAMYYCARRRPGQGYFDFWGQGTMVTVSS
VL: EIVLTQSPATLSASPGERATISCRASQSVSSWLAWYQQKPGQAPRSLIYAASNLQSGIPARFSGSGSGTDFTLTISSLEPEDFAVYYCQQYNIYPFTFGQGTRLEIKR
notes: IgG1/kappa
B6: ustekinumab (trade name Stelara) (antibody, V domains shown)
VH: EVQLVQSGAEVKKPGESLKISCKGSGYSFTTYWLGWVRQMPGKGLDWIGIMSPVDSDIRYSPSFQGQVTMSVDKSITTAYLQWNSLKASDTAMYYCARRRPGQGYFDFWGQGTLVTVSS
VL: DIQMTQSPSSLSASVGDRVTITCRASQGISSWLAWYQQKPEKAPKSLIYAASSLQSGVPSRFSGSGSGTDFTLTISSLQPEDFATYYCQQYNIYPYTFGQGTKLEIK

Legend:
[1] = target: T1, IL-12 (Human IL12 (His Tag)), Sino Biological Cat. No. CT-050-H08H-20 (human, UniProt P29460 23-328; P29459 23-219); test: FACS competition, IL-12-His 20 nM on 293T-IL-12RB1&IL-23R cells, antibody 30 µg/mL
T1 construct: Bought His-tagged p35/p40 heterodimer
T1 sequence (looked up) 1: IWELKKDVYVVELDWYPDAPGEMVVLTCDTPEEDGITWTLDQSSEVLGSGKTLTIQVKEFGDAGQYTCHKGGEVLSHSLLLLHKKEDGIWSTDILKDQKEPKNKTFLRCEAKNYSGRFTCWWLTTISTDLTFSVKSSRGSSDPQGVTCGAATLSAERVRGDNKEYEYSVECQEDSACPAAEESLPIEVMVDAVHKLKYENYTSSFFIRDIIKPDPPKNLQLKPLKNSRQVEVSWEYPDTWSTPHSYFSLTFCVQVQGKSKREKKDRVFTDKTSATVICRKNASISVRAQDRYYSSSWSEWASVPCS
T1 sequence (looked up) 2: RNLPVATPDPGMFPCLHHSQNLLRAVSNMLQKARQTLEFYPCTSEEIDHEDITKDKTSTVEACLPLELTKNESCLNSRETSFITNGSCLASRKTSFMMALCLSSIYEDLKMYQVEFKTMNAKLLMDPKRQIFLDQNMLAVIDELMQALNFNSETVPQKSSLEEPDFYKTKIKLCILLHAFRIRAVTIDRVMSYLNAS
Procedure: (§1) 200 μL of 1% PBSA was added into each sample, and the mixture was centrifuged at 700×g for 5 min to discard the supernatant. According to experiment design, correspondingly diluted antibody (highest final concentration of 30 μg/mL, 3-fold dilution, 8 concentrations in total) and human IL-12 (Sino Biological, Cat. No.: CT-050-H08H-20) (final concentration of 20 nM) were mixed at a ratio of 1:1, and a blank control was set. The mixture of antibody and human IL12 was incubated on ice for 30 min and then added to the cell precipitate at 100 μL/sample. The resulting mixture was well mixed and incubated on ice for 60 min. 200 μL of 1% PBSA was added, and the mixture was centrifuged at 700×g for 5 min to discard the supernatant, and then washed twice. Alexa Fluor® 488 anti-His tag antibody (Biolegend, Cat. No.: 652509) was diluted at a ratio of 1:400 and added to each tube at 100 μL. The mixture was well mixed and incubated on ice for 40 min in the absence of light. 200 μL of 1% PBSA was added, and the mixture was centrifuged at 700×g for 5 min to discard the supernatant, and then washed twice. 1% PBSA was added at 200 μL/tube, and the cells were resuspended and transferred to a flow cytometry tube for testing.

[2] = target: T2, human IL-23 (IL-23-His-Biotin, Akesobio, 20161209) (human, UniProt Q9NPF7 20-189; P29460 23-328); test: FACS competition, IL-23-His-Biotin 2 µg/mL on 293T-IL-12RB1&IL-23R cells, antibody 0.04 µg/mL
T2 construct: His-tagged and biotinylated; also called human IL23-His-Biotin
T2 sequence (looked up) 1: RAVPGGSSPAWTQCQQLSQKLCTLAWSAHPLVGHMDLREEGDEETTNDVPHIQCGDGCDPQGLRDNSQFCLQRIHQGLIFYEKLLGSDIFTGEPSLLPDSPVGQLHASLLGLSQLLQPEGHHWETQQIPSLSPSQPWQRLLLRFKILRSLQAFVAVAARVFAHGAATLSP
T2 sequence (looked up) 2: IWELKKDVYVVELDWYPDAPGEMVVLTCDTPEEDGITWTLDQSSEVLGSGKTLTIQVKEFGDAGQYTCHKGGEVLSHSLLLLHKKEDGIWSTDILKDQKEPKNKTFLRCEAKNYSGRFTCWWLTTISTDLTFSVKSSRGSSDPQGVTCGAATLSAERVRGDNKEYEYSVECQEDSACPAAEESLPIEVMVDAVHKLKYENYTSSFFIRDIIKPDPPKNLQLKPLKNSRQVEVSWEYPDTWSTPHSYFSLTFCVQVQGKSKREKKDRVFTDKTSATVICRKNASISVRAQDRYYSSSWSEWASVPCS
Procedure: (§2) 2.1. […] 200 μL of 1% PBSA was added into each sample, and the mixture was centrifuged at 700×g for 5 min to discard the supernatant. According to experiment design, correspondingly diluted antibody (highest final concentration of 30 μg/mL, 3-fold dilution, 8 concentrations in total) and human IL-23 (IL-23-His-Biotin, Akesobio, 20161209) (final concentration of 2 μg/mL) were mixed at a ratio of 1:1, and a blank control was set. The mixture of antibody and human IL23 was incubated on ice for 30 min and then added to the cell precipitate at 100 μL/sample. The resulting mixture was well mixed and incubated on ice for 60 min. 200 μL of 1% PBSA was added, and the mixture was centrifuged at 700×g for 5 min to discard the supernatant, and then washed twice. FITC Streptavidin (Biolegend, Cat. No.: 405202) was diluted at a ratio of 1:500 and added to each tube at 100 μL. The mixture was well mixed and incubated on ice for 40 min in the absence of light. 200 μL of 1% PBSA was added, and the mixture was centrifuged at 700×g for 5 min to discard the supernatant, and then washed twice. 1% PBSA was added at 200 μL/tube, and the cells were resuspended and transferred to a flow cytometry tube for testing.

[3] = target: T1, IL-12 (Human IL12 (His Tag)), Sino …; test: FACS competition, IL-12-His 20 nM on 293T-IL-12RB1&IL-23R cells, antibody 0.37 µg/mL
Procedure: as §1

[4] = target: T1, IL-12 (Human IL12 (His Tag)), Sino …; test: FACS competition, IL-12-His 20 nM on 293T-IL-12RB1&IL-23R cells, antibody 0.04 µg/mL
Procedure: as §1

[5] = target: T1, IL-12 (Human IL12 (His Tag)), Sino …; test: FACS competition, IL-12-His 20 nM on 293T-IL-12RB1&IL-23R cells, antibody 10 µg/mL
Procedure: as §1

[6] = target: T2, human IL-23 (IL-23-His-Biotin, …); test: FACS competition, IL-23-His-Biotin 2 µg/mL on 293T-IL-12RB1&IL-23R cells, antibody 30 µg/mL
Procedure: as §2

[7] = target: T1, IL-12 (Human IL12 (His Tag)), Sino …; test: FACS competition, IL-12-His 20 nM on 293T-IL-12RB1&IL-23R cells, antibody 1.11 µg/mL
Procedure: as §1

[8] = target: T2, human IL-23 (IL-23-His-Biotin, …); test: FACS competition, IL-23-His-Biotin 2 µg/mL on 293T-IL-12RB1&IL-23R cells, antibody 0.12 µg/mL
Procedure: as §2

| Binder | MFI [1] | MFI [2] | MFI [3] | MFI [4] | MFI [5] | MFI [6] | MFI [7] | MFI [8] |
| --- | --- | --- | --- | --- | --- | --- | --- | --- |
| B1 | 117 | 221 | 159 | 158 | 134 | 104 | 157 | 217 |
| B2 | 31.6 | 230 | 87.5 | 154 | 34.1 | 11.9 | 44.6 | 221 |
| B3 | 33 | 224 | 103 | 151 | 33.9 | 12.9 | 54.3 | 219 |
| B4 | 31.8 | 234 | 86.6 | 149 | 32.4 | 12.3 | 38.5 | 211 |
| B5 | 34.9 | 216 | 113 | 155 | 46.3 | 14.1 | 66 | 203 |
| B6 | 28.7 | 216 | 95.7 | 150 | 31 | 9.64 | 31.9 | 211 |
